Results taken from patent US11325966.

Legend:
Assay in all cases: cell-based or functional assay
[1] = molecular target: HIV-1 envelope (Env) of pseudovirus CNE20 (HIV-1)
[2] = molecular target: HIV-1 envelope (Env) of pseudovirus 246F C1G (HIV-1)
[3] = molecular target: HIV-1 envelope (Env) of pseudovirus CNE8 (HIV-1)
[4] = molecular target: HIV-1 envelope (Env) of pseudovirus HIV-16055-2.3 (HIV-1)
[5] = molecular target: HIV-1 envelope (Env) of pseudovirus BJOX010000.06.2 (HIV-1)
[6] = molecular target: HIV-1 envelope (Env) of pseudovirus A07412M1.vrc12 (HIV-1)
[7] = molecular target: HIV-1 envelope (Env) of pseudovirus ZM197M.PB7 (HIV-1)
[8] = molecular target: HIV-1 envelope (Env) of pseudovirus REJO4541.67 (HIV-1)
[9] = molecular target: HIV-1 envelope (Env) of pseudovirus 6952.v1.c20 (HIV-1)
[10] = molecular target: HIV-1 envelope (Env) of pseudovirus ZM53M.PB12 (HIV-1)
[11] = molecular target: HIV-1 envelope (Env) of pseudovirus 211-9 (HIV-1)
[12] = molecular target: HIV-1 envelope (Env) of pseudovirus R3265.c06 (HIV-1)
[13] = molecular target: HIV-1 envelope (Env) of pseudovirus X2088_c9 (HIV-1)
[14] = molecular target: HIV-1 envelope (Env) of pseudovirus 3103.v3.c10 (HIV-1)
[15] = molecular target: HIV-1 envelope (Env) of pseudovirus T250-4 (HIV-1)
[16] = molecular target: HIV-1 envelope (Env) of pseudovirus AC10.0.29 (HIV-1)
[17] = molecular target: HIV-1 envelope (Env) of pseudovirus Ce1176_A3 (HIV-1)
[18] = molecular target: HIV-1 envelope (Env) of pseudovirus 620345.c01 (HIV-1)
[19] = molecular target: HIV-1 envelope (Env) of pseudovirus TRJO4551.58 (HIV-1)
[20] = molecular target: HIV-1 envelope (Env) of pseudovirus 1394C9G1 (Rev-) (HIV-1)
[21] = molecular target: HIV-1 envelope (Env) of pseudovirus WEAU_d15_410_787 (HIV-1)
[22] = molecular target: HIV-1 envelope (Env) of pseudovirus T251-18 (HIV-1)
[23] = molecular target: HIV-1 envelope (Env) of pseudovirus Q259.d2.17 (HIV-1)
[24] = molecular target: HIV-1 envelope (Env) of pseudovirus ZM233M.PB6 (HIV-1)
[25] = molecular target: HIV-1 envelope (Env) of pseudovirus C3347.c11 (HIV-1)
[26] = molecular target: HIV-1 envelope (Env) of pseudovirus 0815.v3.c3 (HIV-1)
[27] = molecular target: HIV-1 envelope (Env) of pseudovirus YU2_WT (HIV-1) (UniProt P35961)
[28] = molecular target: HIV-1 envelope (Env) of pseudovirus Ce1086_B2 (HIV-1)
[29] = molecular target: HIV-1 envelope (Env) of pseudovirus 1006_11_C3_1601 (HIV-1)
[30] = molecular target: HIV-1 envelope (Env) of pseudovirus X1632_S2_B10 (HIV-1)
[31] = molecular target: HIV-1 envelope (Env) of pseudovirus ZM247v1 (Rev-) (HIV-1)
[32] = molecular target: HIV-1 envelope (Env) of pseudovirus CAP210.2.00.E8 (HIV-1)
[33] = molecular target: HIV-1 envelope (Env) of pseudovirus T257-31 (HIV-1)
[34] = molecular target: HIV-1 Env of pseudovirus C3347.H1 (HIV-1)
JR-CSF R327A (HIV-1) = JR-CSF R327A (HIV-1) (UniProt P20871)
JR-CSF N301A (HIV-1) = JR-CSF N301A (HIV-1) (UniProt P20871)
JR-CSF N362A (HIV-1) = JR-CSF N362A (HIV-1) (UniProt P20871)
[35] = molecular target: HIV-1 Env of pseudovirus ZM135M.PE10a (HIV-1)

BG1 (antibody)
IC50 in TZM-bl assay [1]: 4.26 µg/mL
IC80 in TZM-bl assay [1]: > 30 µg/mL
IC50 in TZM-bl assay [2]: > 30 µg/mL
IC80 in TZM-bl assay [2]: > 30 µg/mL
IC50 in TZM-bl assay [3]: > 30 µg/mL
IC80 in TZM-bl assay [3]: > 30 µg/mL
IC50 in TZM-bl assay [4]: 4.3 µg/mL
IC80 in TZM-bl assay [4]: 16.9 µg/mL
IC50 in TZM-bl assay [5]: > 30 µg/mL
IC80 in TZM-bl assay [5]: > 30 µg/mL
IC50 in TZM-bl assay [6]: > 30 µg/mL
IC80 in TZM-bl assay [6]: > 30 µg/mL
IC50 in TZM-bl assay [7]: > 30 µg/mL
IC80 in TZM-bl assay [7]: > 30 µg/mL
IC50 in TZM-bl assay [8]: 0.342 µg/mL
IC80 in TZM-bl assay [8]: 1.66 µg/mL
IC50 in TZM-bl assay [9]: > 30 µg/mL
IC80 in TZM-bl assay [9]: > 30 µg/mL
IC50 in TZM-bl assay [10]: > 30 µg/mL
IC80 in TZM-bl assay [10]: > 30 µg/mL
IC50 in TZM-bl assay [11]: 2.85 µg/mL
IC80 in TZM-bl assay [11]: 12.9 µg/mL
IC50 in TZM-bl assay [12]: 0.611 µg/mL
IC80 in TZM-bl assay [12]: 3.44 µg/mL
IC50 in TZM-bl assay [13]: > 30 µg/mL
IC80 in TZM-bl assay [13]: > 30 µg/mL
IC50 in TZM-bl assay [14]: > 30 µg/mL
IC80 in TZM-bl assay [14]: > 30 µg/mL
IC50 in TZM-bl assay [15]: 3.92 µg/mL
IC80 in TZM-bl assay [15]: > 30 µg/mL
IC50 in TZM-bl assay [16]: 0.012 µg/mL
IC80 in TZM-bl assay [16]: 0.043 µg/mL
IC50 in TZM-bl assay [17]: 0.031 µg/mL
IC80 in TZM-bl assay [17]: 0.165 µg/mL
IC50 in TZM-bl assay [18]: 0.626 µg/mL
IC80 in TZM-bl assay [18]: 4.23 µg/mL
IC50 in TZM-bl assay [19]: > 30 µg/mL
IC80 in TZM-bl assay [19]: > 30 µg/mL
IC50 in TZM-bl assay [20]: 1.28 µg/mL
IC80 in TZM-bl assay [20]: 7.25 µg/mL
IC50 in TZM-bl assay [21]: > 30 µg/mL
IC80 in TZM-bl assay [21]: > 30 µg/mL
IC50 in TZM-bl assay [22]: 3.59 µg/mL
IC80 in TZM-bl assay [22]: 18 µg/mL
IC50 in TZM-bl assay [23]: > 30 µg/mL
IC80 in TZM-bl assay [23]: > 30 µg/mL
IC50 in TZM-bl assay [24]: > 30 µg/mL
IC80 in TZM-bl assay [24]: > 30 µg/mL
IC50 in TZM-bl assay [25]: > 30 µg/mL
IC80 in TZM-bl assay [25]: > 30 µg/mL
IC50 in TZM-bl assay [26]: > 30 µg/mL
IC80 in TZM-bl assay [26]: > 30 µg/mL
IC50 in TZM-bl assay [27]: 15.8 µg/mL
IC80 in TZM-bl assay [27]: > 30 µg/mL
IC50 in TZM-bl assay [28]: > 30 µg/mL
IC80 in TZM-bl assay [28]: > 30 µg/mL
IC50 in TZM-bl assay [29]: > 30 µg/mL
IC80 in TZM-bl assay [29]: > 30 µg/mL
IC50 in TZM-bl assay [30]: 0.079 µg/mL
IC80 in TZM-bl assay [30]: 0.25 µg/mL
IC50 in TZM-bl assay [31]: > 30 µg/mL
IC80 in TZM-bl assay [31]: > 30 µg/mL
IC50 in TZM-bl assay [32]: > 30 µg/mL
IC80 in TZM-bl assay [32]: > 30 µg/mL
IC50 in TZM-bl assay [33]: > 30 µg/mL
IC80 in TZM-bl assay [33]: > 30 µg/mL

PGT121 (antibody)
IC50 in TZM-bl assay [34]: > 10 µg/mL
IC80 in TZM-bl assay [34]: > 10 µg/mL

354BG8 (antibody)
IC50 in TZM-bl assay (JR-CSF R327A (HIV-1)): 0.005 µg/mL
IC50 in TZM-bl assay (JR-CSF N301A (HIV-1)): 0.006 µg/mL
IC50 in TZM-bl assay (JR-CSF N362A (HIV-1)): 0.008 µg/mL
IC50 in TZM-bl assay [35]: 0.061 µg/mL
IC80 in TZM-bl assay [35]: 0.263 µg/mL
